“And” between values parts separate entries of the source, which are not always exact repeats. Equal values may be shown once.
Assays:
[1] = target: His6-tagged human peroxiredoxin 3 (human); experiment: native MS; 20 uM protein (monomer) in 100 mM ammonium acetate, pH 8.0; trap collision energy 20 V; step: chains to the dodecameric ring
[2] = target: His6-tagged human peroxiredoxin 3 (human); experiment: AUC; sedimentation velocity, 20 C, 20 uM protein (monomer) in 100 mM ammonium acetate, pH 4.0; c(s) distribution; step: ring-to-ring stacking
[3] = target: His6-tagged human peroxiredoxin 3 (human); experiment: native MS; protein buffer exchanged from 100 mM ammonium acetate, pH 4.0, back into pH 8.0 before injection; step: stacks of rings back to single rings
[4] = target: His6-tagged human peroxiredoxin 3 (human); experiment: native MS; 20 uM protein (monomer) buffer exchanged from pH 8.0 into 100 mM ammonium acetate, pH 4.0; spectra from 60 seconds (0 hours) to 3 hours after exchange; step: ring-to-ring stacking
[5] = target: His6-tagged human peroxiredoxin 3 (human); experiment: SEC-SLS; Superdex 200 Increase 10/300 GL with refractive index and right-angle light scattering, 28 C; 20 uM protein in 100 mM ammonium acetate, pH 8.0; step: chains to the dodecameric ring
[6] = target: cleaved human peroxiredoxin 3 (human); experiment: native MS; 20 uM protein (monomer) in 100 mM ammonium acetate, pH 8.0; trap collision energy 20 V; step: chains to the dodecameric ring
[7] = target: cleaved human peroxiredoxin 3 (human); experiment: AUC; sedimentation velocity, 20 C, 20 uM protein (monomer) in 100 mM ammonium acetate, pH 4.0; c(s) distribution; step: ring-to-ring stacking
[8] = target: cleaved human peroxiredoxin 3 (human); experiment: native MS; protein buffer exchanged from 100 mM ammonium acetate, pH 4.0, back into pH 8.0 before injection; step: stacks of rings back to single rings
[9] = target: cleaved human peroxiredoxin 3 (human); experiment: native MS; 20 uM protein (monomer) buffer exchanged from pH 8.0 into 100 mM ammonium acetate, pH 4.0; spectra from 60 seconds (0 hours) to 3 hours after exchange; step: ring-to-ring stacking
[10] = target: cleaved human peroxiredoxin 3 (human); experiment: SEC-SLS; Superdex 200 Increase 10/300 GL with refractive index and right-angle light scattering, 28 C; 20 uM protein in 100 mM ammonium acetate, pH 8.0; step: chains to the dodecameric ring

| Substance | stoichiometry N [1] | rings in a stack [2] | rings in a stack [3] | rings in a stack [4] | stoichiometry N [5] | stoichiometry N [6] | rings in a stack (main population) [7] | rings in a stack [8] | rings in a stack [9] | rings in the most populated stack [9] | stoichiometry N [10] |
| --- | --- | --- | --- | --- | --- | --- | --- | --- | --- | --- | --- |
| His6-tagged human peroxiredoxin 3 (natural protein) | 12 | 2 rings and 4 rings | 1 rings | 2 to 3 rings | 12 | – | – | – | – | – | – |
| cleaved human peroxiredoxin 3 (natural protein) | – | – | – | – | – | 12 | 34 rings | 1 rings and 2 rings | 6 rings | 3 rings | 12 |

Reference: article PMC6053953
